The values that follow come from patent US11230704B2, “Oxidation of highly unsaturated fatty acids with novel 8-lipoxygenase derived from Malacostraca” (Bizen Chemical Co., Ltd., priority 2018, dated 2022).

The test system of data set [1] is peroxisome proliferator-activated receptor (PPAR). Conditions: background statement, Non Patent Literature 1; cited from earlier work.
A short description of data set [2]: Measurement of activity of PK LOX2: thawed PK LOX2 expressing Sf9 cell pellets incubated with EPA, LC-QTOFMS. The format is biochemical, Sf9 cells. As for the experimental part: A baculovirus stock expressing PK LOX2 obtained by the same method as PK LOX1 in Example 3 was prepared. Sf9 cells were infected therewith. After washing the Sf9 cells after two days from infection with PBS and centrifuging the cells at 1500 g, the cells were frozen at −80° C. after removing the PBS. 50 μL of 200 mM Tris-HCl (pH of 7.4) supplemented with EPA at a concentration of 50 μM was added to PK LOX2 expressing Sf9 cell pellets thawed on ice, and the pellets were incubated for 4 hours at 27° C. After adding 150 μL of acetonitrile (containing 1% formic acid) to the incubated solution and vortexing the solution, the solution was centrifuged for 10 minutes at 4° C. at 20,000 g. The supernatant was collected and 5 μL thereof was subjected to LC-QTOFMS to analyze 8-HEPE.

Data set [3] can be described thus: Measurement of activity of PK LOX1: EPA added to medium of PK LOX1 expressing Sf9 insect cells, LC-QTOFMS of cell extract. Format: cell-based. The protocol: (§1) A P1 baculovirus stock prepared by cryopreserving a culture supernatant of Sf9 insect cells transduced with bacmid expressing PK LOX1 was added to a medium of Sf9 insect cells and cultured for 1 week. 50 μM of arachidonic acid, eicosapentaenoic acid, or docosahexaenoic acid was added to the medium of baculovirus infected cells, and the cells were centrifuged and collected after 4 hours of culture. After removing the medium from the Sf9 cells and adding acetonitrile to the cells and sonicating the cells, the solution was centrifuged for 10 minutes at 20,000 g, and the supernatant was used as an extract. 5 μL of the extract was subjected to high performance liquid chromatography/mass spectrometry system (LC-QTOFMS: Agilent) to analyze 8-HETE, 8-HEPE, and 10-HDoHE. […] The 8-HETE content after adding an arachidonic acid, 8-HEPE content after adding an eicosapentaenoic acid, and 10-HDoHE content after adding a docosahexaenoic acid are higher in a PK LOX1 expressing Sf9 insect cell extract compared to an extract of EGFP expressing Sf9 insect cells used as a control. It was confirmed that 8-HETE, 8-HEPE, and 10-HDoHE production is induced by PK LOX1 expression (FIG. 6C).

A short description of data set [4]: Measurement of activity of PK LOX1: arachidonic acid added to medium of PK LOX1 expressing Sf9 insect cells, LC-QTOFMS of cell extract. Format: cell-based. The note with it: 50 μM, 4 hours; FIG. 6C. As for the experimental part: as §1
Data set [5] is described as follows: Measurement of activity of PK LOX1: docosahexaenoic acid added to medium of PK LOX1 expressing Sf9 insect cells, LC-QTOFMS of cell extract. Conditions: 50 μM, 4 hours; FIG. 6C. Format: cell-based. The protocol:
as §1

Take `CCC=CCC=CCC=CC=CC(O)CC=CCCCC(=O)O` (centres unmarked) [8-HEPE, 8-hydroxyeicosapentaenoic acid]: the “PPAR activating action compared with EPA” value in data set [1] is “higher peroxisome proliferator-activated receptor (PPAR) activating action than EPA”.

B1: PK LOX2: lipoxygenase isolated from Euphausia pacifica, 686 amino acids, SEQ ID NO: 4, expressed His-tagged in Sf9 insect cells (protein, listed as Euphausia pacifica)
chain: MVALRCFKPEEMHIFTICGLFLAAMEVSNAYLCNNNFLVTVKTGYGTDAGSNASVILVLEDQNRNEIRNWLSIPKQDETGNHRIPIPTSFGRIVTVELALDYKLAPDWYCEDIFIEDPRLNDRLYFPIDRRIQGNQFYDFQNYATCLPQFDQNSISRRLTLQKKREDYQLSYDRTAAMVKDLPQDEIFHQDYISSIRAIQKTSIDDQIPLLQAWQSSNNISAFFGGDFYMPQSIQFWKEDAWFGAQRVQGIVPNIIELCKQIPDKLGVTEDTISGLLEGSTLQQALKNNKIFISDLELLDGIQYSGVWSDNADHAAPISVFYLNKIDQLMPIAIQLRQQKGPKNPVYTPKDPPNTWLVAKIYYNNAESQFHQILVHFGYTHMIMDGIATSMNRQLSPSHPVFKILKPHFLYLLAINRLGEQELFVPQGVFPYFSIGLDGMNQLLAKAVPQFTLARAIGSVESDARARGVWDKQVLPYYPFRDDAHSMYNIIKKYATKVIYYYYNTPGKIINDMELQRWRTELAKPRAQGGVGIPDLPGSDTAGFRDINEIIDLVTTIITHSSVGHAAVNFPMYDTYGYFPNYPPDLNEGPPLQKMLYTEDEIMSLFPNGSHAFRVRATIRVLSWQGTNDCGDFEKIYLYDPVSQEAQVELRKDLAMFSKEVMNRNSKRFIPYKYLDPNYVPNAISI
modifications: His tag
For B1, the 8-HEPE production in data set [2] (EPA 50 μM, 4 hours at 27° C., FIG. 7) was 8-HEPE production was observed. The “activity compared with specific activity of lipoxygenases known in the art” value in data set [2] (PK LOX2 expressing Sf9 cells) is given as “markedly stronger than the specific activity of lipoxygenases known in the art”. The “specific activity of lipoxygenase (8-HEPE/PK LOX2 expressing Sf9 cell protein)” value in data set [2] (printed as 'up to about', EPA 50 μM, 200 mM Tris-HCl pH 7.4, 4 hours at 27° C., FIG. 7) is “about 3.2 ng/mg”.

B2: PK LOX1: lipoxygenase isolated from Euphausia pacifica, 691 amino acids, SEQ ID NO: 2, expressed His-tagged in Sf9 insect cells (protein, listed as Euphausia pacifica)
chain: MAPIKEKKSFKLTAATGNQDGAGTDANVYVTFEDEEGRRTKEKKLDKLLYNDLEKGKKDKYDINAPVEFGAVKKLHVHRDSTGLGDSWFCDYFEIKDLRFKGNNNEPSPTKKEYYYFPIHRWISSQHRYEFDEYGTCLPQADPCIGPRKADLEAKKSSYNYVYRIGAMAATDTTDACVGHCAQVETLPADEKFSEDYYWNFATDKLKLLAETKWMEWTNQTKWNSLSDLRSVYKKSLGEPKCLDVWREDWWFGLQRLQGVNPVIIELCTQIPDNLAVTDTTVEGLMDDLTLNEALENKKIFICDLKIMDGLCCKENRELAAPLALFYLNKENKLLPIALQLKQEKGDDNPVFTPKDSKNTWLVAKMFYNNSEAQHHQALTHLGYTHLLMEGVVVCTHRNLSPSHPLFKLMAPHFLFLLAINSRGLEKLVSEGGWVDCCMTQGLCGILDLMKRGFEAWTYTKFGSVSAELEARGVLNKDVLPYYPYRDDALPLFAEIRKYVKTIVEHHYDNEDKMKEDWELKSWREELAKQRSENGVGLADIPGSKEDGFNSVDEVVDVVTMIISTCSLGHAASNFQQYEQYGYVPNYPGILMSTLPKEKKEYTEEEIMQILPDKRMTLDIMVITKLLSTKGTQSLGDFEMQYLYDPVGVQAAKDFRKNLDRLSKKNKLENVDRQWDFDWLDPEFVPNAISV
modifications: His tag
For the molecule B2, the “8-HEPE content after adding an eicosapentaenoic acid, compared to extract of EGFP expressing Sf9 insect cells (control)” value in data set [3] (50 μM, 4 hours, FIG. 6C) is recorded as “higher”. In data set [3] (EPA 50 μM added, 4 hours of culture, FIG. 6A), the “production of 8-HEPE in cell extract” value was “Production of 8-HEPE was observed”. Further, the “activity compared with specific activity of lipoxygenases known in the art” value in data set [3] (PK LOX1 expressing Sf9 cells) is “markedly stronger than the specific activity of lipoxygenases known in the art”. Moreover, in data set [3] (only one peak of m/z=317.22, retention time and MS/MS match 8-HEPE standard, FIG. 6A, 6B), the “position specificity of oxidation of EPA” value is recorded as “catalyzed position 8 specific oxidation of EPA”. For the same molecule, the “specific activity of lipoxygenase (8-HEPE/PK LOX1 expressing Sf9 cell protein)” value in data set [3] (printed as 'up to about', 50 μM substrate, 4 hours of culture, FIG. 6C) is listed as “about 2.5 μg/mg”. Also, in data set [4], the “8-HETE content after adding an arachidonic acid, compared to extract of EGFP expressing Sf9 insect cells (control)” value is on record as “higher”. For the same molecule, the “10-HDoHE content after adding a docosahexaenoic acid, compared to extract of EGFP expressing Sf9 insect cells (control)” value in data set [5] is given as “higher”.
